# Assay results from US8722861B2, “Monoclonal antibodies that bind to the V3 loop of HIV-1 gp120” (priority 2007, dated 2014).
# Columns and labels:
# [1] = target: monomeric gp120 (gp120-SF2) (Human immunodeficiency virus type 1 group M subtype B, UniProt P03378); details: presence or absence of 0.5 μg/ml sCD4; FIG. 1
# Protocol: The “gp120-capture ELISA” was applied to screen for the antibody-producing cells having an anti-gp120 activity (J. P. Moore et al., J. Virol. 67, pp. 6136-6151, 1993). […] Thereafter, a supernatant was removed, and 175 μl of a blocking buffer (2% bovine serum albumin; BSA, 0.1% Azide, PBS, pH 7.2) was added to the residue. The obtained mixture was left at rest at room temperature for 30 minutes. Thereafter, the well was washed with an ELISA wash buffer (0.15% Tween20, PBS, pH 7.2) three times, and 50 μl each of monomeric gp120 (gp120-SF2; Austral Biologicals, San Ramon, Calif.) was then added thereto. The obtained mixture was left at rest at room temperature for 2 hours. Thereafter, the resultant was washed with the ELISA wash buffer three times, so as to produce a “gp120-captured plate.” A culture supernatant of B cells was added to this plate, and the mixture was then reacted at room temperature for 2 hours. The resultant was washed with the ELISA wash buffer three times, and 100 μl of anti-human IgG-ALP, which had been diluted by a factor of 1000 with the ELISA buffer, was then added to the resultant. […] Thereafter, the absorbance (405 nm) was measured with a microplate reader.
# Utilizing this property, monoclonal antibodies were classified. […] After washing them, color was developed using ALP-Substrate, and the absorbance (405 nm) was then measured.
# [2] = tested on: pseudotyped HIV-1 viruses (envelopes of 4 types of HIV-1 strains); assay: Single-round neutralization of pseudotyped viruses, 4 strains overall; format: cell-based; details: 4 types of envelope pseudotyped viruses overall; FIG. 3
# Excerpt: With regard to 20 types of antibodies, their binding activity to the cell surface, the amount of antibody produced, and the like were taken into consideration. As a result, regarding 15 types of antibodies, the number of cells was increased, a culture supernatant was collected and was then filtrated, and a monoclonal antibody was then purified using a protein A column or protein G column (GE Healthcare). The neutralizing activity of the thus purified monoclonal antibody on pseudotyped HIV-1 viruses was examined at an antibody concentrations of 10 μg/ml and 2 μg/ml, using the envelopes of 4 types of HIV-1 strains commonly used in laboratories (FIG. 3). In order to produce such pseudotyped virus, on the day before transfection, 293T cells were dispersed on a 100-mm collagen-coated plate (IWAKI) to a cell concentration of 4×10^6, and they were then cultured at 37° C. overnight. Thereafter, 5 μg of pNL4-3-Luc-E^−R^− or 5 μg of pSG3ΔEnv (Li M. et. al, J. Virol. 79, pp. 10108-10125, 2005), 4.5 μg of an envelope expression vector, and 0.5 μg of a pRSV-REV vector were introduced into the culture using Effectene (QIAGEN), and the obtained mixture was then cultured at 37° C. in 5% CO2. Twenty-four hours after initiation of the culture, a supernatant was recovered and was then pass through a 0.2-μm filter. Thereafter, it was then dispensed and was then conserved at −80° C. The obtained pseudotyped virus was subjected to a p24 Antigen ELISA kit (ZeptoMetrix Co.) to measure the amount of p24 antigen. A single-round neutralization experiment using the pseudotyped virus was carried out as follows. On the day before the experiment, GHOST-hi5 cells or TZM-bl cells were dispersed on a 96-well flat bottom culture plate (Falcon) at a concentration of 2×10^4 cells/200 μl. […] Ten seconds after the addition of the luciferase substrate, fluorescence intensity was measured with a TR477 microplate luminometer (Applied Biosystems) (in the case of GHOST-hi5). […] Thereafter, β-galactosidase activity was measured with the TR477 microplate luminometer. […]
# [3] = tested on: 93TH976.17; assay: Neutralization of subtype AE virus 93TH976.17; format: cell-based, HIV-1; details: 93TH976.17, subtype AE; FIG. 11
# Excerpt: (§1) As with the panels of subtype (clade) B viruses (SVPB), the panels of subtype C viruses have also been supplied. […] Thus, it is considered that they are important for the studies of cross-clade neutralization by antibodies.
# [4] = tested on: HIV-1JR-FL chronically infected cells (PM1/JR-FL); assay: FACS binding to functional envelope on infected cell surface; details: for reactivity in the absence of sCD4: absence of sCD4, FIG. 2
# Protocol: It has been known that HIV-1 has a functional envelope causing membrane fusion with target cells on viral particles and on the surfaces of chronically infected cells. In order to study whether or not the produced antibody is able to recognize this functional envelope, the binding activity of the antibody to the cell surface of HIV-1JR-FL chronically infected cells (PM1/JR-FL) was examined with a flow cytometer. […] PM1/JR-FL cells (2×10^5) were placed in a test tube. Thereafter, 50 μl of sCD4 that had been diluted with a FACS buffer (2% BSA, 0.02% Azide in PBS; pH 7.23) and adjusted to a concentration of 1 μg/ml, or 50 μl of only the FACS buffer, was added to the test tube. The mixture was reacted for 15 minute. Thereafter, 50 μl of monoclonal antibody diluted with a FACS buffer to a concentration of 1 to 3 μg/ml was then added to the reaction mixture, and the obtained mixture was reacted at room temperature for 45 minutes. The resultant was washed with a FACS buffer two times, and 50 μl of FITC-bound anti-human IgG antibody (Sigma) diluted with a FACS buffer at a ratio of 1:200 was then added to the resultant. The mixture was incubated at 4° C. in a dark place for 30 minutes. Thereafter, the resultant was washed with a FACS buffer two times, and it was then fixed with 0.5 ml of fixing solution {2% (w/v) paraformaldehyde in PBS}. The fixed sample was analyzed with FACSCalibur (Beckton-Dickinson). The incorporated data was analyzed with Cell Quest (Beckton-Dickinson). […] Differing from the reaction with the gp120 monomer, in the case of a functional envelope consisting of a trimer, the binding inhibition of CD4bs antibodies by sCD4 was not observed. On the other hand, with regard to CD4i antibodies, the 4 types of antibodies all had only weak reactivity in the absence of sCD4, but in the presence of sCD4, such reactivity was increased up to the level equivalent to the reactivity of a V3 antibody.
# [5] = tested on: 93TH966.8; assay: Neutralization of subtype AE virus 93TH966.8; format: cell-based, HIV-1; details: 93TH966.8, subtype AE; FIG. 11
# Excerpt: as §1
# [6] = tested on: SVPC13; assay: Neutralization of subtype C virus panel, SVPC13; format: cell-based, HIV-1; details: compared with a control antibody, FIG. 11
# Excerpt: as §1
# [7] = target: T1, gp120 (Human immunodeficiency virus type 1 group M subtype B, UniProt P03378); details: epitope on gp120: V3L, CD4bs, CD4i
# T1 sequence (P03378 32-509): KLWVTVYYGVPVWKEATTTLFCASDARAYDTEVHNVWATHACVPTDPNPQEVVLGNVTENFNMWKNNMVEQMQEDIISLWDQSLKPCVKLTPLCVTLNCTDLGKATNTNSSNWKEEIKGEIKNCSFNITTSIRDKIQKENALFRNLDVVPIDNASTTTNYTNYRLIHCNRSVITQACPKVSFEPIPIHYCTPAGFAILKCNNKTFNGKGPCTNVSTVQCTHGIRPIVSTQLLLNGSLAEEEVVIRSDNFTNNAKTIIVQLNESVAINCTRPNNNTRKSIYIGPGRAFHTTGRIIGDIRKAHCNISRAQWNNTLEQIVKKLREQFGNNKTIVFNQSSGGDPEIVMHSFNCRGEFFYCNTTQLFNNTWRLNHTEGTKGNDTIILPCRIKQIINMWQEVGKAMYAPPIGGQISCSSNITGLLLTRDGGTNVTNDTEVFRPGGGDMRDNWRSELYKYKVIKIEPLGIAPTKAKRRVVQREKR
# Protocol: Antibodies reacting with gp120 are classified into the following 4 types, depending on the types of reactive epitopes. Specifically, the 4 types are a CD4-binding site (CD4bs), a CD4-induced epitope (CD4i), a third variable loop (V3loop; V3L), and those that cannot be classified into the aforementioned groups (other epitopes). Whether or not an antibody binds to V3L is determined by ELISA using a synthetic peptide having the amino acid sequence of V3L (V3-peptide ELISA). […] On the day before the experiment, 100 μl of a peptide (NNT20) diluted in PBS at a concentration of 5 μg/ml was added to each well of a 96-well polypropyren plate, and it was then left at 4° C. overnight. After washing, 175 μl of a blocking buffer was added to each well, and was incubated at room temperature for 30 minutes. The plate was washed with an ELISA wash buffer three times, and a B cell culture supernatant diluted serially was then added to the wells. The plate was reacted at room temperature for 2 hours. […] After washing the resultant, color was developed using ALP-Substrate, and the absorbance (405 nm) was then measured. […]
# On the other hand, soluble CD4 (sCD4; R&D Systems, Inc. Minneapolis, Minn.) exerts completely opposite influences on a CD4bs antibody and a CD4i antibody. […] After washing them, color was developed using ALP-Substrate, and the absorbance (405 nm) was then measured.
# [8] = tested on: SVPC15; assay: Neutralization of subtype C virus panel, SVPC15; format: cell-based, HIV-1; details: compared with a control antibody, FIG. 11
# Excerpt: as §1
# [9] = tested on: JR-FL strain; assay: MTT assay of combined use on JR-FL strain; format: cell-based; details: combined use with CCR5 inhibitor (maraviroc, MVC); HIV-1JRFL; FIG. 12
# Protocol: By combining 0.5δ and 0.5γ in various concentrations, their neutralizing activity on a JR-FL strain was analyzed by an MTT assay. […] In order to analyze such synergistic effect, the analysis method of Chow/Talaley et al. and the 3-dimensional analysis method were applied. […]
# [10] = tested on: HIV-1 of subtype B (Western type); assay: MTT assay neutralization, 17 types of viral strains overall; format: cell-based; details: summary of Table 2
# Protocol: Neutralizing activity on 17 types of viral strains including clinically isolated strains was studied (Table 2). For this neutralization experiment, the following MMT assay was applied. As a method, 2×10^3 PM1/CCR5 cells were infected with 100 TCID50 virus in the presence of the antibody in each concentration on a 96-well round-bottom micro culture plate, and the cells were then cultured at 37° C. for 7 days. Thereafter, 100 μl of a culture solution was removed from each well, and 10 μl of an MTT (3-[4,5-dimethylthiazol-2-yl]-2,5-diphenyltetrazolium bromide) solution dissolved in a phosphate-buffered saline (PBS) (7.5 mg/ml) was then added thereto. The obtained mixture was incubated at 37° C. for 3 hours. Thereafter, 100 μl of acidified isopropanol containing 4% Triton X-100 (vol/vol) was added to each well, so as to release formazan crystal. The absorbance (570 nm) was measured with a microplate reader, and the cell survival rate was calculated. This experiment was repeated 2 or 3 times. The antibody concentration necessary for inhibiting 50% virus infection (IC50) was calculated, and the antibody concentration corresponding to such IC50 was indicated with color-coding.
# It should be noted that strains, which were not neutralized by the anti-V3 antibody, 0.5γ(1C10), were neutralized by the CD4bs antibodies, 0.5δ(3D6) and 49G2. That is to say, a complementary neutralization was observed.
# [11] = target: T1, gp120; details: 0.5δ(3D6) 5 μg/ml for 15 minutes versus control antibody 8D11; FIG. 4
# Protocol: Thereafter, a supernatant was removed, and 175 μl of a blocking buffer (2% bovine serum albumin; BSA, 0.1% Azide, PBS, pH 7.2) was added to the residue. The obtained mixture was left at rest at room temperature for 30 minutes. Thereafter, the well was washed with an ELISA wash buffer (0.15% Tween20, PBS, pH 7.2) three times, and 50 μl each of monomeric gp120 (gp120-SF2; Austral Biologicals, San Ramon, Calif.) was then added thereto. The obtained mixture was left at rest at room temperature for 2 hours. Thereafter, the resultant was washed with the ELISA wash buffer three times, so as to produce a “gp120-captured plate.” A culture supernatant of B cells was added to this plate, and the mixture was then reacted at room temperature for 2 hours. The resultant was washed with the ELISA wash buffer three times, and 100 μl of anti-human IgG-ALP, which had been diluted by a factor of 1000 with the ELISA buffer, was then added to the resultant. The obtained mixture was left at rest at room temperature for 1 hour. The resultant was washed with the ELISA wash buffer three times. Phosphatase substrate (SIGMA) was dissolved in a substrate buffer (Diethanol amine buffer; pH 9.85), and 100 μl of the obtained solution was then added to each well, followed by leaving the mixture at rest at room temperature for 10 to 30 minutes. Thereafter, the absorbance (405 nm) was measured with a microplate reader. […]
# [12] = tested on: Standard Virus Panels B; SVPB (12 types of pseudotyped viruses); assay: Breadth of neutralization on Standard Virus Panels B; format: cell-based, HIV-1
# Protocol: The neutralizing activity of the thus purified monoclonal antibody on pseudotyped HIV-1 viruses was examined at an antibody concentrations of 10 μg/ml and 2 μg/ml, using the envelopes of 4 types of HIV-1 strains commonly used in laboratories (FIG. 3). In order to produce such pseudotyped virus, on the day before transfection, 293T cells were dispersed on a 100-mm collagen-coated plate (IWAKI) to a cell concentration of 4×10^6, and they were then cultured at 37° C. overnight. Thereafter, 5 μg of pNL4-3-Luc-E^−R^− or 5 μg of pSG3ΔEnv (Li M. et. al, J. Virol. 79, pp. 10108-10125, 2005), 4.5 μg of an envelope expression vector, and 0.5 μg of a pRSV-REV vector were introduced into the culture using Effectene (QIAGEN), and the obtained mixture was then cultured at 37° C. in 5% CO2. […] Ten seconds after the addition of the luciferase substrate, fluorescence intensity was measured with a TR477 microplate luminometer (Applied Biosystems) (in the case of GHOST-hi5). […] Thereafter, β-galactosidase activity was measured with the TR477 microplate luminometer. Neutralizing activity was calculated in accordance with the expression {1−(t−c)/(n−c)}×100 (t: the fluorescence intensity of a sample; c: the background fluorescence intensity of only cells; n: the fluorescence intensity of a sample with no antibodies). […]
# [13] = tested on: strain JR-FL; assay: Single-round neutralization of pseudotyped virus, JR-FL; format: cell-based, HIV-1; details: 10 μg/ml and 2 μg/ml, FIG. 3
# Excerpt: (§2) With regard to 20 types of antibodies, their binding activity to the cell surface, the amount of antibody produced, and the like were taken into consideration. As a result, regarding 15 types of antibodies, the number of cells was increased, a culture supernatant was collected and was then filtrated, and a monoclonal antibody was then purified using a protein A column or protein G column (GE Healthcare). The neutralizing activity of the thus purified monoclonal antibody on pseudotyped HIV-1 viruses was examined at an antibody concentrations of 10 μg/ml and 2 μg/ml, using the envelopes of 4 types of HIV-1 strains commonly used in laboratories (FIG. 3). In order to produce such pseudotyped virus, on the day before transfection, 293T cells were dispersed on a 100-mm collagen-coated plate (IWAKI) to a cell concentration of 4×10^6, and they were then cultured at 37° C. overnight. […] Ten seconds after the addition of the luciferase substrate, fluorescence intensity was measured with a TR477 microplate luminometer (Applied Biosystems) (in the case of GHOST-hi5). […] Thereafter, β-galactosidase activity was measured with the TR477 microplate luminometer. […]
# [14] = tested on: strain 89.6; assay: Single-round neutralization of pseudotyped virus, 89.6; format: cell-based, HIV-1; details: 10 μg/ml and 2 μg/ml, FIG. 3
# Excerpt: as §2
# Chain of monomeric gp120 (gp120-SF2) (P03378 32-509): as above
molecule,measurement,setting,value
"42F9: IgG1 κ monoclonal antibody to gp120 CD4-binding site; VH SEQ ID NO: 7, VL SEQ ID NO: 8; FERM BP-11022 (antibody, listed as Homo sapiens, V domains shown) VH: EVQLVESGGGVVRPGGSLRLSCAASGFAFGEYGMSWVRQAPGKGLEWVSGINWNGGSTGYADSVQGRFTTSRDNAKNSLYLQMNSLRAEDTALYYCARDENYDILTGNYYYGMDVWGQGTTVTVSS VL: DIQLTQSPSSLSASVGDRVTITCRASQSISNYLNWYQQKPGKAPKLLIYAASSLQSGVPSRFSGSGSGTDFTLTISSLQPEDFATFYCQQSHSIPYTFGQGTKLEIKR",influence of sCD4 on reactivity with gp120,[1],suppressed in the presence of sCD4
same,neutralizing activity,[2],strong neutralizing activity
same,neutralizing activity,[3],exhibited a neutralizing activity
same,binding activity to the infected cell surface,[4]; FIG. 2,had a binding activity
same,neutralizing activity,[5],exhibited a neutralizing activity
same,neutralizing activity,[6],clear neutralizing activity
same,Traget,[7],CD4bs
same,neutralizing activity,[8],clear neutralizing activity
"0.5γ(1C10): human IgG1 κ monoclonal antibody to gp120 V3 loop; VH SEQ ID NO: 1, VL SEQ ID NO: 2; FERM BP-11060 (antibody, listed as Homo sapiens, V domains shown, human IgG1 κ monoclonal antibody to gp120 V3 loop; FERM BP-11060) VH: EVQLVESGGGLIQPGGSLRLSCAASGFTVSSSSMSWVRQAPEKGLEWVSVVYSGGNTYNADSVKGRFSISRDNSKNTVYLQMNSLRADDTAVYYCARDLGGGDRSSDYWGQGTLVTVSS VL: DIQLTQSPSSLSASVGDRVTITCRASESINTYLNWYQQRPGKAPKLLIYAASTLQTGVPSRFSGSGSGTLFTLTISSLQPEDLATYYCQQSFSTLPYTLGRGTKVEIKG",neutralizing activity,[2],strong neutralizing activity
same,combination effect on neutralizing activity,[9],synergistic inhibitory effect
same,"neutralizing activity on various HIV-1 strains, overall",[10],wide range of strong neutralizing activity
same,reactivity in the absence of sCD4,[4],strong reactivity
same,reactivity of biotinylated antibody with gp120 in the presence of 0.5δ,[11],significantly enhanced
same,viruses whose growth was suppressed 50% or more,[12]; at a concentration of 50 μg/ml,7/12
same,viruses whose growth was suppressed 50% or more,[12]; at a concentration of 150 μg/ml,10/12
same,neutralizing activity,[13],exhibited a neutralizing activity
same,neutralizing activity,[14],exhibited a neutralizing activity
"5G2: IgG1 κ monoclonal antibody to gp120 V3 loop; VH SEQ ID NO: 3, VL SEQ ID NO: 4; FERM BP-11021 (antibody, listed as Homo sapiens, V domains shown, IgG1 κ monoclonal antibody to gp120 V3 loop; FERM BP-11021) VH: EVQLVESGGGVVRPGNSLRLSCAASGIIFSTANLHWLRHVPGKGLEWVAIISYDGHRQYYADLVKGRFTISRDNSKNTLHLQMDGLTSDDTAVYYCAKDGADENNLGPAFDYWGRGTLVTVSS VL: EIVLTQSPATLSVSPGEGATLSCRASQSISSNLAWYQQKPGQAPRLLIYGASTGATGIPARFSGSGSGTDFTLTISRLEPEDFAIYYCQQYGSLPITFGQGTRLEIKR",neutralizing activity,[2],strong neutralizing activity
same,combination effect on neutralizing activity,[9],synergistic inhibitory effect
same,"neutralizing activity on various HIV-1 strains, overall",[10],equivalent to that of a KD-247 antibody
same,reactivity in the absence of sCD4,[4],strong reactivity
same,neutralizing activity,[13],exhibited a neutralizing activity
same,neutralizing activity,[14],exhibited a neutralizing activity
